Results reported in US20180208918A1.
One block for each molecule: values may come before it.

Columns and labels:
[1] = test system: pPROT8 derived LacZ-proELA-1 fusion protein [β-galactosidase: P00722]
[2] = test system: recombinant MBP-proELA-1 fusion protein (from pPROT5)
[3] = biological target: recombinant trypsin (TrypZean) (UniProt P00760); assay: cell-based or functional assay
UniProt P00760, sequence (P00760 24-246): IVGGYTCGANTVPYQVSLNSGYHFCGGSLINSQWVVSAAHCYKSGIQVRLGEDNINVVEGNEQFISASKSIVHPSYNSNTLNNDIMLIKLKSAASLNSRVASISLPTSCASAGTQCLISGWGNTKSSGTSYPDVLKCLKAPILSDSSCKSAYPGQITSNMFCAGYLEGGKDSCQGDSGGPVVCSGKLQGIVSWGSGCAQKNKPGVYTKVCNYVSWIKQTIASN

Molecule: trypsin
conversion of the fusion protein to enzymatically active human ELA-1 with trypsin [1]: it could not be converted to enzymatically active human ELA-1 with trypsin
digestion of the fusion protein with trypsin (SDS-PAGE; elastase activity by SLAP assay) [2]: The soluble recombinant MBP-proELA-1 protein could be digested with trypsin to yield both MBP and mature human ELA-1

Mean trypsin activity (BENZ assay), TrypZean concentration equivalent; PRT-201 from clone 55M3 Vial #1 plus TrypZean spike (to 100 ng/mL) and SBTI (to 10 ug/mL); spike without SBTI 118.7 [3]: < 1.56 ng/mL
Mean trypsin activity (BENZ assay), TrypZean concentration equivalent; PRT-201 from clone 55M3 Vial #2 plus TrypZean spike (to 100 ng/mL) and SBTI (to 10 ug/mL); spike without SBTI 122.4 [3]: < 1.56 ng/mL
Mean trypsin activity (BENZ assay), TrypZean concentration equivalent; PRT-201 from clone 55M3 Vial #3 plus TrypZean spike (to 100 ng/mL) and SBTI (to 10 ug/mL); spike without SBTI 122.8 [3]: < 1.56 ng/mL
Mean trypsin activity (BENZ assay), TrypZean concentration equivalent; PRT-201 from trypsin activated clone plus SBTI (to 10 ug/mL); intrinsic activity without SBTI 8.7 [3]: < 1.56 ng/mL
Mean trypsin activity (BENZ assay), TrypZean concentration equivalent; PRT-201 from trypsin activated clone plus TrypZean spike (to 100 ng/mL) and SBTI (to 10 ug/mL); spike without SBTI 130.0 [3]: < 1.56 ng/mL
Mean trypsin activity (BENZ assay), TrypZean concentration equivalent; TrypZean standard 1.56 ng/mL plus SBTI (to 10 ug/mL); without SBTI 2.7 [3]: < 1.56 ng/mL
Mean trypsin activity (BENZ assay), TrypZean concentration equivalent; TrypZean standard 3.13 ng/mL plus SBTI (to 10 ug/mL); without SBTI 3.7 [3]: < 1.56 ng/mL
Mean trypsin activity (BENZ assay), TrypZean concentration equivalent; TrypZean standard 6.25 ng/mL plus SBTI (to 10 ug/mL); without SBTI 6.5 [3]: < 1.56 ng/mL
Mean trypsin activity (BENZ assay), TrypZean concentration equivalent; TrypZean standard 12.5 ng/mL plus SBTI (to 10 ug/mL); without SBTI 11.2 [3]: < 1.56 ng/mL
Mean trypsin activity (BENZ assay), TrypZean concentration equivalent; TrypZean standard 25 ng/mL plus SBTI (to 10 ug/mL); without SBTI 23.5 [3]: < 1.56 ng/mL
Mean trypsin activity (BENZ assay), TrypZean concentration equivalent; TrypZean standard 50 ng/mL plus SBTI (to 10 ug/mL); without SBTI 49.4 [3]: < 1.56 ng/mL
Mean trypsin activity (BENZ assay), TrypZean concentration equivalent; TrypZean standard 100 ng/mL plus SBTI (to 10 ug/mL); without SBTI 102.4 [3]: < 1.56 ng/mL
B1: soybean trypsin inhibitor (SBTI) (protein, UniProt P01070 25-205, looked up)
chain: DFVLDNEGNPLENGGTYYILSDITAFGGIRAAPTGNERCPLTVVQSRNELDKGIGTIISSPYRIRFIAEGHPLSLKFDSFAVIMLCVGIPTEWSVVEDLPEGPAVKIGENKDAMDGWFRLERVSDDEFNNYKLVFCPQQAEDDKCGDIGISIDHDDGTRRLVVSKNKPLVVQFQKLDKESL
